We go through one substance from patent publication US20210238262A1.

The target of the assay is ZIKV PR (Puerto Rican strain, PRVABC59) virus (Zika virus strain PRVABC59). In words: cell-based or functional assay.

In the case of Z004 (antibody), the micro-neutralization (MN50) in Vero cells, IC50 was 1.4 ng/mL.
